PMC4354731

Key:
[1] = substrate: COC1=C(OC)C(=O)C(C)=CC1=O; assay: succinate:Q0 oxidoreductase steady-state kinetics in membranes; format: biochemical, Escherichia coli; conditions: [3Fe-4S], [4Fe-4S], [2Fe-2S] clusters; FAD; heme b
[2] = substrate: CC(C)=CCC1=C(O)C(=O)c2ccccc2C1=O; assay: lapachol:fumarate oxidoreductase steady-state kinetics in membranes; format: biochemical, Escherichia coli; conditions: [3Fe-4S], [4Fe-4S], [2Fe-2S] clusters; FAD; heme b

B1: succinate dehydrogenase (SdhCDAB), SdhB subunit (Escherichia coli K-12) (protein)
chain 1: MRLEFSIYRYNPDVDDAPRMQDYTLEADEGRDMMLLDALIQLKEKDPSLSFRRSCREGVCGSDGLNMNGKNGLACITPISALNQPGKKIVIRPLPGLPVIRDLVVDMGQFYAQYEKIKPYLLNNGQNPPAREHLQMPEQREKLDGLYECILCACCSTSCPSFWWNPDKFIGPAGLLAAYRFLIDSRDTETDSRLDGLSDAFSVFRCHSIMNCVSVCPKGLNPTRAIGHIKSMLLQRNA
chain 2: MIRNVKKQRPVNLDLQTIRFPITAIASILHRVSGVITFVAVGILLWLLGTSLSSPEGFEQASAIMGSFFVKFIMWGILTALAYHVVVGIRHMMMDFGYLEETFEAGKRSAKISFVITVVLSLLAGVLVW
chain 3: MVSNASALGRNGVHDFILVRATAIVLTLYIIYMVGFFATSGELTYEVWIGFFASAFTKVFTLLALFSILIHAWIGMWQVLTDYVKPLALRLMLQLVIVVALVVYVIYGFVVVWGV
- Km [1]: 150 µM
- kcat [1]: 33.9 s⁻¹
- Km [2]: 100 µM
- kcat [2]: 11.9 s⁻¹
